Results published in patent US9084745B2, “Modulation of the Vps10p-domain for the treatment of cardiovascular disease” (H. Lundback A/S, priority 2008, dated 2015).

Biological target: T1, recombinant human sortilin (Homo sapiens, UniProt Q99523)
T1 sequence (Q99523 78-755 limits assumed): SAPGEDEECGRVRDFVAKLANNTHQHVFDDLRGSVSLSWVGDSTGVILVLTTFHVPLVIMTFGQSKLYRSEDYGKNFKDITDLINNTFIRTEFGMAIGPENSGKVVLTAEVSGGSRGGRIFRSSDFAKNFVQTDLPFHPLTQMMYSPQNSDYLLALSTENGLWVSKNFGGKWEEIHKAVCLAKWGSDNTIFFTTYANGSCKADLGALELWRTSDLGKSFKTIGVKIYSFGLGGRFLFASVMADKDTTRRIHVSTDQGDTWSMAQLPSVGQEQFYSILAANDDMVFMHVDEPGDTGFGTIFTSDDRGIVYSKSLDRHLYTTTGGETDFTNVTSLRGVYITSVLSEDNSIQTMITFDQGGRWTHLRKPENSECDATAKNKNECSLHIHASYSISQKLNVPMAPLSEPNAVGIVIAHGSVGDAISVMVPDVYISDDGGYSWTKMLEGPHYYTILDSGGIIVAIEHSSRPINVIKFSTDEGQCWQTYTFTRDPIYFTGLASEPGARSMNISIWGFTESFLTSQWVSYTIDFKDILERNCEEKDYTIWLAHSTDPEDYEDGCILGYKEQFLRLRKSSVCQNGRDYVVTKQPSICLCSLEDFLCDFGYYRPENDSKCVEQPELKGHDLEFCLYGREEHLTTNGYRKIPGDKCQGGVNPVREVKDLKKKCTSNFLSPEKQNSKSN
Experiment: Surface plasmon resonance analysis of ApoB binding to immobilized sortilin
Conditions: ApoB 10, 20, 50 nM, on and off rates recorded, displayed experiment
Method: FIG. 5b: Characterization of ApoB binding to recombinant human sortilin (30). Sortilin was immobilized on a BIAcore CM5 sensorchip at a density of […]. A) After baseline calibration in running buffer (10 mM Hepes, 150 mM NaCl, 1 mM EGTA, 1.5 mM CaCl2, 0.005% P20, pH 7.4) 10 μg/ml rabbit anti-sortilin IgG (12) or running buffer alone was applied to the chip. At t=700 sec the response units obtained in the presence of anti-sortilin IgG was arbitrarily set at 100 and 50 nM ApoB was applied to the flow cell pre-incubated with antibody or with buffer alone. Association of ApoB binding was measured until 1200 sec, after which the solute was changed to buffer to allow dissociation. […]
Determination of direct binding of ligand to immobilized protein can be performed by e.g. surface plasmon resonance analysis (Biacore, Sweden) using CaHBS as standard running buffer (10 mM HEPES, pH 7.4, 140 mM NaCl, 2 mM CaCl2, 1 mM EGTA, and 0.005% Tween-20). […] In another approach, inhibition of an established ligand can be monitored in the absence or presence of putative inhibitors. […] The data collected are analysed by fitting of sensorgrams for affinity estimations and inhibitory potential using the Biaevaluation version 3.1 program. We evaluated the binding properties of ApoB to sortilin (FIG. 5b). […]

Kd: 0.4 nM
Substance: ApoB: apolipoprotein B, the part of LDL that binds to the LDL receptor; tested as sortilin ligand
